Experimental data taken from IntAct's records for PubMed 24843043.

B1: Outer mitochondrial transmembrane helix translocase (Saccharomyces cerevisiae), P28737 (parent)
chain: MSRKFDLKTITDLSVLVGTGISLYYLVSRLLNDVESGPLSGKSRESKAKQSLQWEKLVKRSPALAEVTLDAYERTILSSIVTPDEINITFQDIGGLDPLISDLHESVIYPLMMPEVYSNSPLLQAPSGVLLYGPPGCGKTMLAKALAKESGANFISIRMSSIMDKWYGESNKIVDAMFSLANKLQPCIIFIDEIDSFLRERSSTDHEVTATLKAEFMTLWDGLLNNGRVMIIGATNRINDIDDAFLRRLPKRFLVSLPGSDQRYKILSVLLKDTKLDEDEFDLQLIADNTKGFSGSDLKELCREAALDAAKEYIKQKRQLIDSGTIDVNDTSSLKIRPLKTKDFTKKLRMDATSTLSSQPLD
partner: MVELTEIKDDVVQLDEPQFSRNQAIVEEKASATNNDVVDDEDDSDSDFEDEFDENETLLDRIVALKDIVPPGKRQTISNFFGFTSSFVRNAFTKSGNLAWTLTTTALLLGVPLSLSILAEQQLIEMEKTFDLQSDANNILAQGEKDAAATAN
B2: Outer mitochondrial transmembrane helix translocase (Saccharomyces cerevisiae), P28737 (parent)
chain: B1 chain
partner: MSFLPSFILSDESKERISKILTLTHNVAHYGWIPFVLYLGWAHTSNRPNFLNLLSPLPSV

Variants of: B1
Settings: with tom22_yeast TOM22, P49334

Row | Variant | effect of a mutation on the interaction
1 | E193Q | increasing interaction

Variants of: B2
Settings: with tom7_yeast TOM7, P53507

Row | Variant | effect of a mutation on the interaction
2 | E193Q | increasing interaction
